Laboratory results taken from the DeepSol protein solubility set.

Test: soluble on expression in E. coli; label from the status in PepcDB or PDB records

Sequence	soluble on expression in E. coli
MDNTYRDEKVNGCGPGDVNLMLELLEKGEKIGGKSADQSSLFVALCRSVGIPAREVFGIRVLPSSFSEGLSIKPGSKDITKAQHCRAEFWAGEWIPVDPADVTKLILKEKLPRNHPRVNFARRYFFGNWDPHWIAYNWGRDFVLEPPQRVKPLNLFGYPYAEVKGEPLNWLEPKSFVYRIKLVRA	not soluble
LQASCSDDQEHRLGSLDFYTGVFALEKSRIAEISNRATLELQKMATSGEPMWLRSVETGREILNYDEYLKEFPQAQASSFPGRKTIEASRDAGIVFMDAHKLAQSFMDVGQWKETFACLISKAATVDVIRQGEGPSRIDGAIQLMFGEMQLLTPVVPTREVYFVRSCRQLSPEKWAIVDVSVSVEDSNTEKEASLLKCRKLPSGCIIEDTSNGHSKVTWVEHLDVSASTVQPLFRSLVNTGLAFGARHWVATLQLHCERLVFFMATNVPTKDSLGVTTLAGRKSVLKMAQRMTQSFYRAIAASSYHQWTKITTKTGQDMRVSSRKNV	soluble
MGSDKIHHHHHHMQDFSNLVEKVENTLIPYFRKIEKRALFNQEKVLNAFHHVKASESDLQGSTGYGYDDFGRDHLEQIYAHTFKADDALVRPQIISGTHAITLALQSTLKNNDELLYITGSPYDTLLEVIGINGNGVESLKEYGVRYNEVELRDGRIDIPKVITAINDNTKVVAIQRSKGYDQRPSITINEIEQAITSIKEVYPNIIIFVDNCYGEFVEDKEPIEVGADLIAGSLIKNPGGGLAKIGGYIAGRQDLIERCGYRLTAPGIGKEAGASLNSLQEMYQGFFLAPHVVSQSLKGALFTSLLLEKINMKTSPKYNVYRTDLIQTVQFETKEQMISFCQSIQHASPINAHFSPEPSYMPGYEDDVIMAAGTFIQGSSIELSADGPIRPPYEAYVQGGLTYEHVKLAVTRAVQHMQENNLL	not soluble
MSAQVQDLTPIKGVTYYYPPHDAVLVFKDGAAEIPYGGLPVPLLEEDYASLDGEPSYDAVGRGVYQTLRTNPDCIHCAAYATLLRDAYPHYLAELASHAIMLDSKDVEVPYIDRKIVSLKVLSLLEPDNAGLPLEIGRAYLDRGLRLSALHMSTVSIYRAEHFLRRALELTPEDGRALRLLGEVCYLLGKYEEAASCWLDTLDLADADEAERFRVRLARISEGRLPLIAPVDYLEAIGAAFTCFHTGDYEEAVAILQDVLMDGIFCAEFPIADIHCVIGKSFVQLDMPRYAEESFRAALQLDPAHEESLACLRKVTGEELEHHHHHH	soluble
RDPIGYEKMFSKLRGGIVHARETAKRIAASPIVEQEGELCFTLYNAVGDSVLTSTGIIIHVGTMGSAIKYMVENNWEDNPGINDKDIFTNNDCAIGNVHPCDIMTLVPIFHDEKLIGWVGGVTHVIDTGSVTPGSMSTGQVQRFGDGYMITCRKTGANDESFKDWLHESQRSVRTPKYWILDERTRIAGCHMIRDLVMEVIKEDGIDSYMRFIDEVIEEGRRGLISRIKSMTIPGKYRKVAFVDVPYAHKDIGVCSEFAKLDTIMHSPVEITINKDATWKLDFDGASRWGWHSFNCNQVSFTSGIWVMMTQTLIPTSRINDGAYFATQFRLKKGTWMNPDDRRTGHAYAWHFLVSGWSALWRGLSQAYYSRGYLEEVNSGNANTSNWLQGGGINQDGEIHAVNSFETSSCGTGACAIKDGLNHAAAIWNPEGDMGDVEIWEMAEPLLYLGRNVKANTGGYGKYRGGNGFETLRMVWGAHDWTMFFMGNGYMNSDWGMMGGYPAASGYRFEAHNTDLKNRIKNNASLPLGGDFNPTDRDYEKHISHASQVKRDKQCITTENCFDNYDLYLNYIKGGPGFGDPIERDLNAILEDLNSKQL	not soluble
MRGLMLRSFSAGYSTQPVIADLNVPLLPRGKITILLGPNGCGKSTLLRSLAGLNNADGEALLDGEDLMSLSFAERAQKVVFLPQSLPQGVHLHVLESIIVVLRASGGRDNAQGRAQILAILEQLGITHLALQYLDQLSGGQRQLVGLAQSLIRRPELLLLDEPLSALDLNYQFHVMDLVRRDTQAQNRVTIVVAHDINIALRHGDHVLMLKDGRLVASGAPETVITAERLAEVYRVRGRVERCSQGKLQVVLDGVIAV	not soluble
MEKSLKNYKTLQQLFVRRLKAGVRPVDADEHTVVSPVDAVIEDMGTIRENCEMIVKGKPYSIAEMLGSVEAAQPYVNGFFFILYLSPSHYHRIHSPISGVIEKQWALGRKSYPVNRLGLKYGRRPLEKNYRLITEVTAGGKRLAIVKIGAMFVNSIELTHEGEQLVKGEEMAYFSFGSTVVLLFERGSFAPDPRIVAPMPIKVGERLGYWCEAHER	not soluble
MVTNRVVFLTGAASGIGYEMGNTFAKEGAKVVITDRLEERAKEAAEQLQKEGFQAIGLKCDVTSEEEIEASISQTVNHFGSLDILINNAGMQHVSPIEDFPTEKFELLIKIMQIAPFIAIKHAFPIMKKQKYGRIINVASINGLVGFAGKAAYNSAKHGVIGLTKVAALEGATHGITVNALCPGYVDTPLVRNQLQDLATTRNVPLENVLEDVIYPLVPQKRLLQVQEIADYAMFLASEKAKGITGQAVVIDGGYTAQ	not soluble
MNVIYPLAVPKGRRLCCEVCEAPAERVCAACTVTYYCGVVHQKADWDSIHEKICQLLIPLRTSMPFYNSEEERQHGLQQLQQRQKYLIEFCYTIAQKYLFEGKHEDAVPAALQSLRFRVKLYGLSSVELVPAYLLLAEASLGLGRIVQAEEYLFQAQWTVLKSTDCSNATHSLLHRNLGLLYIAKKNYEEARYHLANDIYFASCAFGTEDIRTSGGYFHLANIFYDLKKLDLADTLYTKVSEIWHAYLNNHYQVLSQAHIQQMDLLGKLFENDTGLDEAQEAEAIRILTSILNIRESTSDKAPQKTIFVLKILVMLYYLMMNSSKAQEYGMRALSLAKEQQLDVHEQSTIQELLSLISTEDHPIT	soluble
MNSIWARLRLASSQLPIGGYSYSQGLEAALDNGWVRDAESARTWLVDQLQLNLARFEAPLLAGLLRAALIGDWAACDAASERHRASRETRELAQESRQMGFSLHQLLEALPELDAPGRAWLARQDPPNLAAAWAMAARAWRLDAEEALSAWFWSWLENQLAVLMKTLPLGQLAAQKLASSLLPELDRACAEALRRPAVEGSAAFGLALASMTHETQYSRLFRSLEHHHHHH	not soluble
MGSSHHHHHHSSGLVPRGSHMVTGKAFPYVVVTGIAMTTALATDAETTWKLLLDRQSGIRTLDDPFVEEFDLPVRIGGHLLEEFDHQLTRIELRRMGYLQRMSTVLSRRLWENAGSPEVDTNRLMVSIGTGLGSAEELVFSYDDMRARGMKAVSPLTVQKYMPNGAAAAVGLERHAKAGVMTPVSACASGAEAIARAWQQIVLGEADAAICGGVETRIEAVPIAGFAQMRIVMSTNNDDPAGACRPFDRDRDGFVFGEGGALLLIETEEHAKARGANILARIMGASITSDGFHMVAPDPNGERAGHAITRAIQLAGLAPGDIDHVNAHATGTQVGDLAEGRAINNALGGNRPAVYAPKSALGHSVGAVGAVESILTVLALRDQVIPPTLNLVNLDPEIDLDVVAGEPRPGNYRYAINNSFGFGGHNVAIAFGRY	soluble
MAHHHHHHMHTNTMEVVVKHMGAAFSVAVIPVLKDNYTYIIHDKTTNTMAAVDVSADTTPIVDYVERIRRSIDERGAGAMSFSTIFSTHKHWDHAGGNVVLPKALKAAGAFRIIGGVNDNISGVTQTVREGDRLSLGALQVEVLEAPCHTRGHVLYKVYHPQAEKDGVALFTGDTMFVGGIGAFFEGDAAHMCRALRKVYNLHHNATDKEEADRRTFVFPGHEYTVNFLQFARDTIPPAHPDATFIASQLERYKESVAQRKPTVPSTLAEEKRQNLFLRTCDESFVREMKHGDTAETLMQHLYDTCP	not soluble
GGGVKAFAFIGALQVLEENGFSFTRVAGTSAGAIFASLVCSGYRSDELFSIMEQLDGKMFKDGGKVMPFPFAKWLRLYFKLGMYKGDQLEKWLIQVLGHKGVSTFADLPKGALKIVASDISRGRLIVLPDDLKDYGLIPERFSVARAVRMSCGIPYFFQPVKLYNRKRRGERSYVVDGGILSNFPIWL	not soluble
MGSDKIHHHHHHAAVNRVGMGSSWRAGVKVGVGVSYQFEPGWIGLKSGLYYANRGYSLGDYPRTTESATYVLKEMMTGGITQHFLQLPVMADFSWKVSKEVRMHLAVGMYAGVSVKNDTNWGSSFTMGYSKEPQALGKYVKSTGLGYSYGYGHSGYDEAENADHPFRDVNSFDWGLTTSFGIEVNNWVMNLGYDLSLGDEGGNYKIDGDNFSLYEVRSVGANYNTMSLTVGYKFKL	not soluble
MIQMSSNDSSEVIRQCLQVLESITSDSSVPRNIRRSVNEIMDILNNESEPLFLRAASSISILEDISNDPNLPLHTRTLIWNLSSQLETIPVDE	not soluble
MGSDKIHHHHHHMSDASKPDSNEVREIRINPVVPGESVLVATARSMRPKKAEELAPRDTRKHVETCPFCRGNEHKTPPAILTWPDTGDWQIRMVENLYPVLGDDRAQAGFTFGLQQTIDGYGRHEVIIDHSEHGIAVQDMAETHLAALFGVYQTRMRQLFDSDERLKYVLVFKNFGPAAGASIPHTHSQVIAMPVVPENVDAEVRNSATHYAKHHHCIFCALIDEALTFEATIYDRNSGAVRRKINVGQYVVERGEKFIAIKPFASRYEWEVHILPLAHQADFLDVRGEDLADLARVMKRTMARLDAVIGGAQYNFFLHSVPHDAQQATHAPSYHWHLEICPRTSIPTGFELGSGLFVNTINPEEAAERLRSVELPAR	not soluble
MSNTLFDDIFQVSEVDPGRYNKVCRIEAASTTQDQCKLTLDINVELFPVAAQDSLTVTIASSLNLEDTPANDSSATRSWRPPQAGDRSLADDYDYVMYGTAYKFEEVSKDLIAVYYSFGGLLMRLEGNYRNLNNLKQENAYLLIRR	soluble
MLQGFRWSPHGFWVCQARFFNKKIRQRTHYEVLGVESTATLSEIKSAFYAQSKKVHPDNSSEESATASFLELKNAYDVLRRPADRRLYDYQLRGGGGRYPNGGQRYQYPNTAPQYDFSRDWSTYWSQNPDNSRSSREERDKSSREFMKSI	not soluble
QVQLVASGGGSVQAGGSLRLSCAASGYTFSSYPMGWYRQAPGKECELSARIFSDGSANYADSVKGRFTISRDNAANTAYLQMDSLKPEDTAVYYCAAGPGSGKLVVAGRTCYGPNYWGQGTQVTVSS	soluble
MSQWYELQQLDSKFLEQVHQLYDDSFPMEIRQYLAQWLEKQDWEHAANDVSFATIRFHDLLSQLDDQYSRFSLENNFLLQHNIRKSKRNLQDNFQEDPIQMSMIIYSCLKEERKILENAQRFNQAQSGNIQSTVMLDKQKELDSKVRNVKDKVMCIEHEIKSLEDLQDEYDFKCKTLQNREHETNGVAKSDQKQEQLLLKKMYLMLDNKRKEVVHKIIELLNVTELTQNALINDELVEWKRRQQSACIGGPPNACLDQLQNWFTIVAESLQQVRQQLKKLEELEQKYTYEHDPITKNKQVLWDRTFSLFQQLIQSSFVVERQPCMPTHPQRPLVLKTGVQFTVKLRLLVKLQELNYNLKVKVLFDKDVNERNTVKGFRKFNILGTHTKVMNMEESTNGSLAAEFRHLQLKEQKNAGTRTNEGPLIVTEELHSLSFETQLCQPGLVIDLETTSLPVVVISNVSQLPSGWASILWYNMLVAEPRNLSFFLTPPCARWAQLSEVLSWQFSSVTKRGLNVDQLNMLGEKLLGPNASPDGLIPWTRFCKENINDKNFPFWLWIESILELIKKHLLPLWNDGCIMGFISKERERALLKDQQPGTFLLRFSESSREGAITFTWVERSQNGGEPDFHAVEPYTKKELSAVTFPDIIRNYKVMAAENIPENPLKYLYPNIDKDHAFGKYYSR	soluble
MVKVIFFDLDDTLVDTSKLAEIARKNAIENMIRHGLPVDFETAYSELIELIKEYGSNFPYHFDYLLRRLDLPYNPKWISAGVIAYHNTKFAYLREVPGARKVLIRLKELGYELGIITDGNPVKQWEKILRLELDDFFEHVIISDFEGVKKPHPKIFKKALKAFNVKPEEALMVGDRLYSDIYGAKRVGMKTVWFRYGKHSERELEYRKYADYEIDNLESLLEVLARESSSNKKVHPPRQQI	soluble
